Measurements reported in patent US20100291097A1 (AC IMMUNE S A, published 2010).
Values belong to the binder of their own block, whether it stands above or below them.

How the values were obtained:
[1] = target: Aβ1-42 peptide; assay: cell-based or functional assay
[2] = target: T1, Aβ17-40 peptide, biotinylated (Anaspec) (biotinylated (position not given)); assay: ELISA on longer biotinylated Aβ peptides
T1 peptide: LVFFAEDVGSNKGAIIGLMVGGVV
Source text: (§1) The peptides in the peptide library were composed of 8, 9 or 10-mer aa peptides. A biotinylated complete Aβ₁₋₄₂ peptide (human sequence) was used as positive control (Bachem, Bubendorf, Switzerland). In addition, longer peptides covering Aβ1-28, Aβ17-40, Aβ1-40 and Aβ₁₋₄₂ were used to define the broader region to which these antibodies may bind. These 4 peptides were also biotinlyated (manufactured by Anaspec and purchased from ANAWA Trading SA, Switzerland). Epitope mapping was done according to the manufacturer's (Mimotopes) instructions. Briefly, Streptavidin coated plates (NUNC, Roskilde, Denmark) were blocked with 0.1% BSA in PBS overnight at 4° C. After washing with PBS-0.05% Tween 20, plates were coated for 1 hour at RT with the different peptides from the library, diluted in 0.1% BSA, 0.1% Sodium Azide in PBS to a final concentration of 10 μM. […] Plates were washed again and incubated with alkaline phosphatase conjugated goat anti mouse IgG (Jackson Immunresearch West Grove, Pa., USA) for 1 h at RT. After final washing, plates were incubated with phosphatase substrate (pNPP, Sigma-Aldrich, St Louis, Mo., USA) and read after 3 hours of incubation at 405 nm using an ELISA plate reader.

[3] = target: T1, Aβ17-40 peptide, biotinylated (Anaspec); assay: ELISA, biotin-peptide on streptavidin, Ab 10 µg/ml; mean of 2, background subtracted
Source text: as §1

[4] = target: T2, Aβ1-40 peptide, biotinylated (Anaspec) (biotinylated (position not given)); assay: as above
T2 construct: also called Ab1-40
Source text: as §1

[5] = target: T3, Aβ1-42 peptide, biotinylated (Anaspec) (biotinylated (position not given)); assay: as above
T3 construct: also called 1-42A
Source text: as §1

[6] = target: T4, Biotinylated complete Aβ1-42 peptide (human sequence, Bachem) (human, biotinylated (position not given)); assay: as above
T4 construct: also called 1-42B; Aβ1-42 (positive control of the peptide library ELISA)
Source text: as §1

[7] = target: T4, Biotinylated complete Aβ1-42 peptide …; assay: peptide library ELISA, positive control, Ab 10 µg/ml
Source text: as §1

Chain of Aβ1-42 peptide (peptide, as listed by the source): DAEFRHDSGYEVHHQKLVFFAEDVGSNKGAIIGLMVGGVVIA
T4 sequence (peptide, as listed by the source): as above
T3 sequence (peptide, as listed by the source): as above

disaggregation of pre-aggregated Aβ1-42, thioflavin T assay, molar ratio 1:10 [1]: 52% | disaggregation of pre-aggregated Aβ1-42, thioflavin T assay, molar ratio 1:100 [1]: 22% | inhibition of Aβ1-42 aggregation, thioflavin T assay, molar ratio 1:10 [1]: 69% | inhibition of Aβ1-42 aggregation, thioflavin T assay, molar ratio 1:100 [1]: 34% | binding result [2]: no binding (tested: 10 µg/ml) | O.D. [3]: 0.02 O.D. | O.D. [4]: 1.02 O.D. | O.D. [5]: 0.78 O.D. | O.D. [6]: 1.54 O.D.
B1: ACI-11-Ab-9 monoclonal antibody (antibody, V domains shown)
VH: QVQLQQSDAELVKPGASVKISCKVSGYTFTDHTIHWMKQRPEQGLEWIGYIYPRDGSTKYNEKFKGKATLTADKSSSTAYMQLNSLTSEDSAVYFCARDYGYAFDYWGQGTTLTVSS
VL: QAVVTQESALTTSPGGTVILTCRSSTGAVTTSNYANWVQEKPDHLFTGLIGGTSNRAPGVPVRFSGSLIGDKAALTITGAQTEDDAMYFCALWYSTHYVFGGGTKVTVL
notes: Mouse monoclonal IgG from hybridoma FG1F9E4 (DSM ACC2845); also called clone FG1F9E4

disaggregation of pre-aggregated Aβ1-42, thioflavin T assay, molar ratio 1:10 [1]: 54% | disaggregation of pre-aggregated Aβ1-42, thioflavin T assay, molar ratio 1:100 [1]: 18% | inhibition of Aβ1-42 aggregation, thioflavin T assay, molar ratio 1:10 [1]: 66% | inhibition of Aβ1-42 aggregation, thioflavin T assay, molar ratio 1:100 [1]: 30% | O.D. [7]: 0.69 O.D. | O.D. [3]: -0.02 O.D. | O.D. [4]: 0.62 O.D. | O.D. [5]: 0.44 O.D. | O.D. [6]: 1.07 O.D.
B2: ACI-12-Ab-11 monoclonal antibody (antibody, V domains shown)
VH: B1 VH
VL: B1 VL
notes: Mouse monoclonal IgG from hybridoma FK2A6A6 (DSM ACC2846); also called ACI-12-Ab-11 (clone: FK2A6A6); clone FK2A6A6
